Measured values published in article PMC6517241 (Chembiochem : a European journal of chemical biology, 2019).

Assays:
[1] = tested on: SH-SY5Y human neuroblastoma cells; experiment: Flow cytometry quantitation of cellular uptake, SH-SY5Y; type: cell-based
Cellular toxicity = type: cell-based; details: Figure S6
[2] = ref 5b; cited from earlier work

Substance	Potency of L- and D-enantiomers as pore-forming antibacterial peptides [2]	further results
L-Aβ42-TAMRA: L-Aβ42 N-terminally labeled with 5(6)-Carboxytetramethylrhodamine (TAMRA)		Cell fluorescence after incubation at 4 °C (membrane binding) ([1]; SH-SY5Y, 2 h, 4 °C, flow cytometry (Figure S12)): low fluorescence; Influence of N-terminal TAMRA modification on cellular toxicity (Cellular toxicity): not influence cellular toxicity to any significant degree
cecropin	equally potent	
L-Aβ42: natural L-stereoisomer of the 42 amino acid isoform of Amyloid β		Fraction taken up through chirality-dependent mechanisms (class I) ([1]; interpretation of the ~5:1 ratio): approximately 80%
magainin	equally potent	
melittin	equally potent	
